test system: T1, LigR (Novosphingobium aromaticivorans DSM 12444), ORF:c1f1f590; test: EMSA; details: EMSA: 20 nM DNA, 50 mM Tris-HCl, 20 mM HEPES, 1 mM EDTA, 1 mM DTT, 100 mM NaCl, 10% glycerol, pH not stated, room temperature 30 min, gel at 4 C; DNase I …
T1 sequence: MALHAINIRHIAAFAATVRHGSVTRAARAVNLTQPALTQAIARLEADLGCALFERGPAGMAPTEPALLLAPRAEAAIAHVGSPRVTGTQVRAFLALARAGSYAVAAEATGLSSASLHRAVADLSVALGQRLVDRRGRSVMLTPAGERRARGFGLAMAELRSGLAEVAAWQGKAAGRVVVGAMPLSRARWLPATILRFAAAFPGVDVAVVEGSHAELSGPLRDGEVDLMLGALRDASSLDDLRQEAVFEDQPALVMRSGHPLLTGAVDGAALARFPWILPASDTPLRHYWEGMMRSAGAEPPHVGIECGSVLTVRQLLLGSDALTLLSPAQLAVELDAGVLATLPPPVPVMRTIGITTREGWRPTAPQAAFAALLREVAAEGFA

Sequence	binding
CAAAGGTCGACCCGGCCTCACCGAAGCCGATCAGGGCGATTGTGAACTCAGGAACGCTCTCCATGGCAGCGGTCCTGCGTCGGCCGCGCCAAAGGAACAAATGCAAACATCGCCCAAGGTATAAATTTATGCAAAGCCTTCTGCGGCCACTTCGCGCAGGAGGGCCGCGAAGGCCGCCTGCGGCGCGGTCGGCCGCCAAC (double strand) [SARO_RS14280 promoter EMSA fragment]	binds
CGATCTGAAGTGCTCAACGTGCAAAGCCTGCACAAAATGACAGGTCGTGCCGGCATCTCAATCGCCTGTTGCTTCCCCTTCTGCTGATTGCTATAAATCATAACAGATTGGGAGAGAGTCATGCAGTTTGAACGCATCAATCCGATGACCGGCGCCGTCGCCTCGCAGGCAGAGGCCATGAAAGCGTCGGACATTCCTTC (double strand) [ligV upstream EMSA fragment]	no binding
ATGCCCAGGCCGATGCCGCTGGCGCCGCCCGTCACGAAAGCCGTCTTGCCCGGCAGATTCTGCATCGATCCTCTCCTTTGGTGCCTTGCCGGCAGCCATCGACCGGCGCCGGGAATCATTTTTCGCCTTTTGTATTCACCAGCGAGGAATTGTATGCAAGACTAACAATATTGCTGCTTCGACAAGGCCCGCCGAAATGGGTCGCCGCAGCGGGA (double strand) [ligN upstream EMSA fragment]	no binding
GCCTTCTGCTTCTCGCGCCACTCGTCGTGCGCCTTCGGCAGCACGGTGTAGTGACCGTGGCAGTCGATGATCATGGTCATGCGACTTCAGTCCTCTCAAGTTTGAACTCTATGGTCTTGCCCGCCTGCTCGCGCTGGCGCCTCACCGTCCCGCCGGTCATCACCGGCTCGACGCCCAGCGATTCCAGCGTCTTGGCTGAC (double strand) [ligJ upstream EMSA fragment]	no binding
GGACGACGATACCCGACATTTCCGGCTCCCGATGAAAGATCTTCGCGCGTTCCATGGAACTGCGGACCGCAGGGAACCAATGCATTGTTTGCCCCGGCCCATAAGGAAATGCTAAGTGATCAGGCATGGCCCTGCACGCGATCAACATCAGGCACATCGCCGCCTTCGCCGCAACGGTGCGCCACGGCAGCGTGACGCGG (double strand) [ligK promoter EMSA fragment]	binds
